In US20130273076A1 (Harvard, published 2013):

Tests used:
[1] = target: endogenous RhoA of mouse brain (mouse, UniProt Q9QUI0 1-190); assay: cell-based or functional assay
[2] = target: Flag-EphB2
[3] = target: Flag-EphA4
[4] = target: EphA2 (expressed in HEK293T cells)
[5] = target: Flag-EphB2-Acyto (cytoplasmic truncated version of EphB2)
[6] = target: Flag-EphB2-kinase dead (KD)

endogenous RhoA of mouse brain, sequence (Q9QUI0 1-190 limits assumed): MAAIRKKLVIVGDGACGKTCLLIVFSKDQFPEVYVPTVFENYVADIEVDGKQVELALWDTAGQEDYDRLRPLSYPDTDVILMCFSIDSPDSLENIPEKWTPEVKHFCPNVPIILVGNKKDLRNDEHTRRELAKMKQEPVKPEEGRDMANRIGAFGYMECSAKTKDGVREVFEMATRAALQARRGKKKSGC
EphA2 (expressed in HEK293T cells), sequence (P29317 whole entry, the tested form may be a part): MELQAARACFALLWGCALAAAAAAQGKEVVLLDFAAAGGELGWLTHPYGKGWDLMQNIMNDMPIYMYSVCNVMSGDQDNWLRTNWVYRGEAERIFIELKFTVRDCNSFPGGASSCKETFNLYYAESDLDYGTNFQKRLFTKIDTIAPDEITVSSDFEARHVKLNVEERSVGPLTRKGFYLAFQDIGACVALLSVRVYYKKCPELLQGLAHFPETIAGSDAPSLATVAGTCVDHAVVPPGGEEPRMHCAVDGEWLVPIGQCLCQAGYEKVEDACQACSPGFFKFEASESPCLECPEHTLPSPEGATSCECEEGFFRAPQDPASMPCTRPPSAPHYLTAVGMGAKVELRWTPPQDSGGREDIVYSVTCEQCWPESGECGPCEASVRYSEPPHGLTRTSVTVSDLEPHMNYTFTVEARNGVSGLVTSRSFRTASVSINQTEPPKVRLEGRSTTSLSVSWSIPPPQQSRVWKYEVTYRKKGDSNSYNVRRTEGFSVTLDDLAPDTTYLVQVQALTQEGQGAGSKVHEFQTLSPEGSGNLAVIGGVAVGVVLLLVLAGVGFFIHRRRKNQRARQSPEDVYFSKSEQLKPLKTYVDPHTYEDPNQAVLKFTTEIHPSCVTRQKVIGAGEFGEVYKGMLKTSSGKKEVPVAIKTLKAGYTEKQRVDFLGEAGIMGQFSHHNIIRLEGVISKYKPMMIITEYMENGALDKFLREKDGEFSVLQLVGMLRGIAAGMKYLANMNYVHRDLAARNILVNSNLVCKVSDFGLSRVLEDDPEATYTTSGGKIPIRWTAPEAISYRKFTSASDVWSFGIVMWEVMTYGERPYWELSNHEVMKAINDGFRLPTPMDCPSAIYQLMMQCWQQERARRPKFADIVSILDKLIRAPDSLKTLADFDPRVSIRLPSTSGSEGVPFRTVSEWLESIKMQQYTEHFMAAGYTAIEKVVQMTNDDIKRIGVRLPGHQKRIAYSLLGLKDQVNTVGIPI

anti-RhoA signal from RBD pulldown assays, Ephexin5-/- against wild type brain lysates [1] [fold]	Binder	phosphorylation of Ephexin5 at Y361 (anti-pY361 immunoblot) [2]	tyrosine phosphorylation of Ephexin5 (anti-phosphotyrosine 4G10 immunoblot) [2]	phosphorylation of Ephexin5 at Y361 (anti-pY361 immunoblot) [3]	phosphorylation of Ephexin5 at Y361 (anti-pY361 immunoblot) [4]	phosphorylation of Ephexin5 at Y361 (anti-pY361 immunoblot) [5]	phosphorylation of Ephexin5 at Y361 (anti-pY361 immunoblot) [6]
4	endogenous mouse Ephexin5 (neurons, brain lysates) (enzyme, UniProt Q5FWH6 1-849, looked up) MSAQSLPAATPPTLKPPRIIRPRPPSRHRAPHSPGPLHNGSSPKALPQISNDASASVCTSIFWEPPTASLKPPALLPPSVSRTSLDSQTSPDSPSSTPSPSPVSRRSISPEPAPCSPVPPPKPSGSSRTPLPSGPTPLQDGSASAPGTVRRLAGKFEWGAEGKAQSSDSLERCSQGSTEVNGEKETPEAALSGNGSQENGTPDAALACPPCCPCVCHVAKPGLELRWVPVGSSEDILRIPCRASPLRASRSRINPPVISHPPVVLTSYRSTAERKLLPPLKPPKPTKVRQDISTSEELPQPDLKLPSEDGIQTATKAWEGDRPEGAPLNAPPVALEGREEEGLDGLKGLQWELPLQDEPLYQTYRAAVLSEELWGVGEDGGPSPANPGEAPTFSRLPGPRNTLWQELPAVRGSGLLESLSPQERRMQESLFEVVTSEASYLRSLRLLTDTFVLSQALRDTLTPRDHHTLFSNVQRVQSVSERFLGTLLSRVRSSPHITDLCDVVHAHAVGPFFVYVDYVRNQQYQEETYSRLMDTNVRFSAELRRLQSLPKCERLPLPSFLLLPFQRITRLRMLLQNILSQTEEGSSRQENAQKALGAVSKIIERCSAEVGRMKQTEELIRLTQRLRFHKVKALPLVSWSRRLELQGELTELGCRRGGVLFTSRPRFTPLCLLLFSDLLLITQPKSGQRLQVLDYAHRSLVQAQQVPDPSGPPTFRLSLLSNHQGRPTHRLLQAASLSDMQRWLGAFPTPGPLPCSPDTIYEDCECSQELCSEPSTPSKTEGQSLESKAPRKHLHKNPEGWLKGLPGAFPAQLVCEVTGEHERRKHLRQHQKLLEAVGPSSGTPDTPQP	when wild type EphB2, but not a kinase dead or cytoplasmic truncated version of EphB2, was expressed in HEK293T cells together with Ephexin5, Ephexin5 become tyrosine phosphorylated at Y361	in the presence of EphB2, Ephexin5-WT, but not Ephexin5-Y361F, become tyrosine phosphorylated	when EphA4 or EphA2 were expressed in HEK293T cells they detected little to no phosphorylation of Ephexin5 at Y361	when EphA4 or EphA2 were expressed in HEK293T cells they detected little to no phosphorylation of Ephexin5 at Y361	when wild type EphB2, but not a kinase dead or cytoplasmic truncated version of EphB2, was expressed in HEK293T cells together with Ephexin5, Ephexin5 become tyrosine phosphorylated at Y361	when wild type EphB2, but not a kinase dead or cytoplasmic truncated version of EphB2, was expressed in HEK293T cells together with Ephexin5, Ephexin5 become tyrosine phosphorylated at Y361
–	Ephexin5-Y361F-Myc (protein) MSAQSLPAATPPTLKPPRIIRPRPPSRHRAPHSPGPLHNGSSPKALPQISNDASASVCTSIFWEPPTASLKPPALLPPSVSRTSLDSQTSPDSPSSTPSPSPVSRRSISPEPAPCSPVPPPKPSGSSRTPLPSGPTPLQDGSASAPGTVRRLAGKFEWGAEGKAQSSDSLERCSQGSTEVNGEKETPEAALSGNGSQENGTPDAALACPPCCPCVCHVAKPGLELRWVPVGSSEDILRIPCRASPLRASRSRINPPVISHPPVVLTSYRSTAERKLLPPLKPPKPTKVRQDISTSEELPQPDLKLPSEDGIQTATKAWEGDRPEGAPLNAPPVALEGREEEGLDGLKGLQWELPLQDEPLFQTYRAAVLSEELWGVGEDGGPSPANPGEAPTFSRLPGPRNTLWQELPAVRGSGLLESLSPQERRMQESLFEVVTSEASYLRSLRLLTDTFVLSQALRDTLTPRDHHTLFSNVQRVQSVSERFLGTLLSRVRSSPHITDLCDVVHAHAVGPFFVYVDYVRNQQYQEETYSRLMDTNVRFSAELRRLQSLPKCERLPLPSFLLLPFQRITRLRMLLQNILSQTEEGSSRQENAQKALGAVSKIIERCSAEVGRMKQTEELIRLTQRLRFHKVKALPLVSWSRRLELQGELTELGCRRGGVLFTSRPRFTPLCLLLFSDLLLITQPKSGQRLQVLDYAHRSLVQAQQVPDPSGPPTFRLSLLSNHQGRPTHRLLQAASLSDMQRWLGAFPTPGPLPCSPDTIYEDCECSQELCSEPSTPSKTEGQSLESKAPRKHLHKNPEGWLKGLPGAFPAQLVCEVTGEHERRKHLRQHQKLLEAVGPSSGTPDTPQP	–	in the presence of EphB2, Ephexin5-WT, but not Ephexin5-Y361F, become tyrosine phosphorylated	–	–	–	–
